Data as given in paper PMC2993962, “Identification of a Novel Binding Partner of Phospholipase Cβ1: Translin-Associated Factor X” (PLoS ONE, 2010).

B1: His-tagged translin-associated factor X (TRAX) (natural protein, human, UniProt Q99598 1-290, looked up)
chain: MSNKEGSGGFRKRKHDNFPHNQRREGKDVNSSSPVMLAFKSFQQELDARHDKYERLVKLSRDITVESKRTIFLLHRITSAPDMEDILTESEIKLDGVRQKIFQVAQELSGEDMHQFHRAITTGLQEYVEAVSFQHFIKTRSLISMDEINKQLIFTTEDNGKENKTPSSDAQDKQFGTWRLRVTPVDYLLGVADLTGELMRMCINSVGNGDIDTPFEVSQFLRQVYDGFSFIGNTGPYEVSKKLYTLKQSLAKVENACYALKVRGSEIPKHMLADVFSVKTEMIDQEEGIS
notes: translin-associated factor X (TRAX), human cDNA from Open Biosystems cloned into pET32a; pET32a may also add thioredoxin and an S tag, depending on the cloning sites (surmise); source: Rosetta cells (pET32a), purified on a Ni-NTA column
B2: Gαq (natural protein, rat, UniProt P82471 1-359, looked up)
chain: MTLESIMACCLSEEAKEARRINDEIERQLRRDKRDARRELKLLLLGTGESGKSTFIKQMRIIHGSGYSDEDKRGFTKLVYQNIFTAMQAMVRAMDTLKIPYKYEHNKAHAQLVREVDVEKVSAFENPYVDAIKSLWNDPGIQECYDRRREYQLSDSTKYYLNDLDRVADPSYLPTQQDVLRVRVPTTGIIEYPFDLQSVIFRMVDVGGQRSERRKWIHCFENVTSIMFLVALSEYDQVLVESDNENRMEESKALFRTIITYPWFQNSSVILFLNKKDLLEEKIMYSHLVDYFPEYDGPQRDAQAAREFILKMFVDLNPDSDKIIYSHFTCATDTENIRFVFAAVKDTILQLNLKEYNLV
modifications: thiol-reactive probe CPM, ~1:1 probe:protein (in the binding titrations)
notes: G protein alpha subunit q (Gαq), rat; the nucleotide state is told by the assay; The sentence of the methods leaves open whether Gαq carried a His tag; also called CPM-Gαq(GTPγS); Gαq-GTPγS; source: Sf9 cells, purified
B3: His6-PLCβ1 (phospholipase Cβ1), full length enzyme (enzyme, rat, UniProt P10687 1-1216, looked up)
chain: MAGAQPGVHALQLKPVCVSDSLKKGTKFVKWDDDSTIVTPIILRTDPQGFFFYWTDQNKETELLDLSLVKDARCGKHAKAPKDPKLRELLDVGNIGHLEQRMITVVYGPDLVNISHLNLVAFQEEVAKEWTNEVFSLATNLLAQNMSRDAFLEKAYTKLKLQVTPEGRIPLKNIYRLFSADRKRVETALEACSLPSSRNDSIPQEDFTPDVYRVFLNNLCPRPEIDNIFSEFGAKSKPYLTVDQMMDFINLKQRDPRLNEILYPPLKQEQVQVLIEKYEPNSSLAKKGQMSVDGFMRYLSGEENGVVSPEKLDLNEDMSQPLSHYFINSSHNTYLTAGQLAGNSSVEMYRQVLLSGCRCVELDCWKGRTAEEEPVITHGFTMTTEISFKEVIEAIAECAFKTSPFPILLSFENHVDSPKQQAKMAEYCRLIFGDALLMEPLEKYPLESGVPLPSPMDLMYKILVKNKKKSHKSSEGSGKKKLSEQASNTYSDSSSVFEPSSPGAGEADTESDDDDDDDDCKKSSMDEGTAGSEAMATEEMSNLVNYIQPVKFESFETSKKRNKSFEMSSFVETKGLEQLTKSPVEFVEYNKMQLSRIYPKGTRVDSSNYMPQLFWNAGCQMVALNFQTVDLAMQINMGMYEYNGKSGYRLKPEFMRRPDKHFDPFTEGIVDGIVANTLSVKIISGQFLSDKKVGTYVEVDMFGLPVDTRRKAFKTKTSQGNAVNPVWEEEPIVFKKVVLPSLACLRIAAYEEGGKFIGHRILPVQAIRPGYHYICLRNERNQPLMLPAVFVYIEVKDYVPDTYADVIEALSNPIRYVNLMEQRAKQLAALTLEDEEEVKKEADPGETSSEAPSETRTTPAENGVNHTATLAPKPPSQAPHSQPAPGSVKAPAKTEDLIQSVLTEVEAQTIEELKQQKSFVKLQKKHYKEMKDLVKRHHKKTTELIKEHTTKYNEIQNDYLRRRAALEKSAKKDSKKKSEPSSPDHGSSAIEQDLAALDAEMTQKLIDLKDKQQQQLLNLRQEQYYSEKYQKREHIKLLIQKLTDVAEECQNNQLKKLKEICEKEKKELKKKMDKKRQEKITEAKSKDKSQMEEEKTEMIRSYIQEVVQYIKRLEEAQSKRQEKLVEKHKEIRQQILDEKPKLQMELEQEYQDKFKRLPLEILEFVQEAMKGKVSEDSNHGSAPPSLASDPAKVNLKSPSSEEVQGENAGREFDTPL
modifications: thiol-reactive probe CPM, ~1:1 probe:protein, in the titrations with TRAX (CPM-PLCβ1); unlabelled when added to CPM-Gαq
notes: phospholipase Cβ1, rat, full length enzyme; also called CPM-PLCβ1; His-tagged PLCβ1; source: Sf9 cells, purified

How the values were obtained:
[1] = molecular target: Gαq (UniProt P21279); conditions: cited from earlier work
[2] = molecular target: B3; experiment: other fluorescence titration; 2 nM CPM-labelled PLCβ1 (full length or ΔC) in solution, unlabelled TRAX added stepwise; increase of CPM intensity (excitation 380 nm, emission 420-560 nm) fitted to a bimolecular dissociation constant; apparent; conditions: both partners purified
[3] = molecular target: B3; experiment: other fluorescence titration; 2 nM CPM-Gαq activated with GTPγS on large unilamellar vesicles of POPC:POPS:POPE (1:1:1); PLCβ1 added; without and with excess TRAX (300 nM in the text, 200 nM in the legend); conditions: both partners purified
[4] = molecular target: B2; experiment: as above; conditions: both partners purified

PLCβ1 (from UniProt Q9NQ66)
Kd [1]: 0.67 nM

B1
Kd [2]: 8 nM

B2
binding result [3]: binds

B3
fold reduction of binding affinity in the presence of excess TRAX [4]: 3 fold
